# Experimental data published in the supplement of paper PMC9732359.
# ± gives the uncertainty stated by the source.
# Experiment: protein stability index of a GFP-peptide fusion (yeast GPS) (PSI 1-4); higher = more stable; sorted into four equal gates, so the index is relative within each strain
# In short: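 Sequencing reads from sorted gates were used to score each peptide. The library consisted of tiled 17-residue yeast protein peptides fused downstream of GFP on a Cherry-expressing plasmid, pooled and carried in yeast. Mid-log cultures in leucine-free medium were split into four equal gates by GFP/Cherry ratio, and each gate's plasmids were PCR-amplified and Illumina-sequenced. The protein stability index adds up, over all gates, the read frequency multiplied by the gate number.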
Sequence,protein stability index (doa10∆),protein stability index (pdr5∆),protein stability index (san1∆),protein stability index (ubr1∆)
NGDNSTTTNTDQNNATM [SNF12],2.4 ± 0.069,2.2 ± 0.069,2.52 ± 0.097,1.99 ± 0.051
NGFAPISEVMEDRNQRI [FAS1],3.44 ± 0.093,3.3 ± 0.06,3.42 ± 0.05,3.31 ± 0.038
NGGVGVDVELITSINVE [FAS2],2.93 ± 0.051,3.18 ± 0.056,3.11 ± 0.05,3.13 ± 0.05
NGKLTSANERLFGNRPS [YML031W/NDC1],2.72 ± 0.11,3.03 ± 0.076,2.69 ± 0.094,2.94 ± 0.066
NGLAIRRAAYGVVRYVM [RPS3],2.06 ± 0.057,1.91 ± 0.064,1.77 ± 0.074,1.61 ± 0.053
NGNLEEEFAYVDPARRQ [MED6],3.62 ± 0.21,3.44 ± 0.12,3.71 ± 0.1,2.74 ± 0.085
NGNTSSKTVVTLSEPVQ [FAS1],2.91 ± 0.072,3.14 ± 0.066,2.96 ± 0.059,2.96 ± 0.055
NGRLNKCGVISPRFNVK [RPS22A],2.58 ± 0.29,2.85 ± 0.23,2.88 ± 0.2,3.22 ± 0.11
NGSSDASSLRFGNSLSN [YDL088C/ASM4],2.77 ± 0.071,2.76 ± 0.075,2.69 ± 0.05,2.56 ± 0.1
NGTISKTGKKNKVAKKN [SRP14],3.51 ± 0.16,3.45 ± 0.19,3.09 ± 0.13,3.17 ± 0.076
NGVRALFHSCTRIQYVD [GRR1],2.08 ± 0.088,2.31 ± 0.055,1.86 ± 0.068,2.59 ± 0.051
NGWEKYLHNVELGEKKN [ISW2],1.7 ± 0.087,1.8 ± 0.14,1.65 ± 0.16,2.56 ± 0.092
NHNQFECKGCDNKIDIY [RPB2],3.06 ± 0.044,3.19 ± 0.047,3.06 ± 0.034,3.1 ± 0.037
NHSLQHQNESSAASIPP [RPN4],2.94 ± 0.057,3 ± 0.058,2.83 ± 0.062,3.12 ± 0.037
NIDSSAQFTFGKAATAK [YOR098C/NUP1],3.12 ± 0.099,3.07 ± 0.14,3.22 ± 0.13,3.1 ± 0.072
NIEEMARVILYLKNVLF [SIN4],2.23 ± 0.075,2.31 ± 0.079,2.01 ± 0.11,2.05 ± 0.037
NIFSEAVKNKYNVGKQL [PRP28],1.55 ± 0.085,2.43 ± 0.11,1.82 ± 0.14,2.37 ± 0.076
NIKIDAKPALFERFINA [MCD1],1.76 ± 0.053,2.8 ± 0.095,2.3 ± 0.1,2.03 ± 0.066
NIKTIAETLAEELINAA [RPS5],2.29 ± 0.067,2.87 ± 0.073,2.85 ± 0.057,2.46 ± 0.048
NIKTSEWDLYPQGFSSV [REC8],2.91 ± 0.26,2.82 ± 0.2,–,–
NILPFLWGPHGLNSDAE [ECM29],2.86 ± 0.21,2.71 ± 0.16,2.54 ± 0.14,2.42 ± 0.2
NIRGNTIRQIILPDSLN [SMD1],2.87 ± 0.15,2.94 ± 0.12,2.76 ± 0.16,3.27 ± 0.099
NKDMIKNLVKVLESRVN [CSN12],2.32 ± 0.23,2.63 ± 0.15,1.58 ± 0.18,1.75 ± 0.15
NKINSRNSWNFALIDYF [BRN1],2.13 ± 0.2,1.27 ± 0.075,1.11 ± 0.11,1.1 ± 0.073
NKLSGILADEMGLGKTL [ISW2],3.1 ± 0.088,3.23 ± 0.13,3.15 ± 0.049,2.68 ± 0.096

Sequence,protein stability index (doa10∆),protein stability index (pdr5∆),protein stability index (san1∆),protein stability index (ubr1∆)
NKTDAQAPTTGFSFGSQ [YJL041W/NSP1],2.91 ± 0.064,2.98 ± 0.06,3.28 ± 0.077,3.07 ± 0.069
NKVGSTGSLMGGNSTQN [YGR119C/NUP57],3.02 ± 0.076,3.38 ± 0.098,3.19 ± 0.059,3.17 ± 0.053
NKVHETSSKSSSLSAII [YDL088C/ASM4],2.67 ± 0.044,2.83 ± 0.053,2.81 ± 0.054,2.8 ± 0.035
NKVQIMIATNVAARGLD [PRP28],1.45 ± 0.061,1.5 ± 0.078,1.43 ± 0.15,1.19 ± 0.055
NKVSNTVSPTQDKDAIR [SIR2],2.98 ± 0.052,3.26 ± 0.07,3.17 ± 0.056,3.11 ± 0.054
NLDAAAAGTSQARTATL [RPC10],2.65 ± 0.17,3.15 ± 0.15,2.73 ± 0.1,2.86 ± 0.096
NLDYLFELIELVTPKSF [NUT1],2.85 ± 0.057,3 ± 0.082,3.09 ± 0.062,3.31 ± 0.063
NLFPLKPKMLPIPSKPT [SRP68],2.38 ± 0.11,2.55 ± 0.093,2.43 ± 0.16,2.61 ± 0.081
NLKGRPYTGWVDSKTKE [FAS2],3.03 ± 0.062,2.95 ± 0.047,3.11 ± 0.048,3.04 ± 0.045
NLLHSYMEKGTQLDDLQ [YML103C/NUP188],2.63 ± 0.056,2.49 ± 0.053,2.35 ± 0.052,2.32 ± 0.034
NLLKDEGVTPGRIRTTR [SSN3],3.1 ± 0.26,2.87 ± 0.23,3.26 ± 0.12,–
NLNDAGLALQLFKKLKE [RPN2],–,2.69 ± 0.23,2.51 ± 0.24,3.19 ± 0.28
NLPEEERKQIHEFKLIV [GRR1],2.13 ± 0.29,3.35 ± 0.24,–,2.73 ± 0.13
NLPEHIVPGTYIQERNP [RPS10A],2.64 ± 0.069,2.62 ± 0.068,2.7 ± 0.047,2.68 ± 0.045
NLQPISTPENVPRLFDL [SMC4],2.89 ± 0.11,2.93 ± 0.084,2.6 ± 0.12,2.48 ± 0.064
NLRLLNSIDSTSRIELE [ECM29],2.91 ± 0.094,3.08 ± 0.077,2.92 ± 0.064,2.98 ± 0.057
NLRLLVEENRVRYTTSV [DLS1],2.33 ± 0.071,2.65 ± 0.056,2.08 ± 0.079,2.43 ± 0.048
NLSAFKIVYIAPLKALV [BRR2],1.55 ± 0.054,1.54 ± 0.051,1.49 ± 0.12,1.56 ± 0.062
NLSRYPKSGIDIFVYLT [MTR3],2.35 ± 0.049,1.97 ± 0.052,2.07 ± 0.079,2.27 ± 0.054
NLYHVTEDGWIYHGNHD [PRE2],–,2.97 ± 0.23,2.88 ± 0.18,3.28 ± 0.22
NMLPQRQSSVGSLNATN [SNF2],2.8 ± 0.082,3.3 ± 0.073,2.78 ± 0.052,3.08 ± 0.046
NMMDAISFVLGVRSNHL [SMC1],2.28 ± 0.063,2.58 ± 0.079,2.77 ± 0.067,2.66 ± 0.064
NNEMKSLQRSKSSFVKE [SMC1],–,3.25 ± 0.13,3.03 ± 0.11,3.28 ± 0.073
NNHNMRNNSNNKTSNNN [SWI1],2.56 ± 0.088,2.55 ± 0.068,1.85 ± 0.093,2.6 ± 0.049
NNIKNGTNNISQHGQGN [YDL088C/ASM4],2.93 ± 0.046,2.87 ± 0.033,3.05 ± 0.034,3.06 ± 0.021
